The assay addresses T1, HIV-1 Env on the cell surface (HIV-1, strain BG505 (clade A), wild type, UniProt Q2N0S6).
T1 construct: also called cell-surface HIV-1 Env; source: 293T, transfected, on cells
Briefly: flow cytometry on cells. The following applies: one partner purified. For orientation: Flow cytometry measures light scatter and fluorescence of single cells or particles in a stream.

B1: 1C2 (rabbit monoclonal antibody, IgG) (antibody, V domains shown)
VH: QSLEESGGDLVKPGASLTLTCTASGFSFGWNDYMSWVRQAPGKGLEWIGCIYAGSTRSTYYANWAKGRLTISKTSSTAVTLQMTSLTAADTATYFCARGAVTYDGLGGAYLKHFNLWGPGTLVTVSS
VL: AIKMTQTPSSVSAAVGGTVTVNCRASEDIESYLAWYQQKPGQPPKLLIYDTSKLASGVPSRFKGSGSGTQFALTISGVQCDDAATYYCLYGYISSDRIDFGFGGGTELVVK
notes: also called bNAb 1C2; vax-bNAb 1C2
For B1, the binding result is reported as “binds”.

The record behind these values is article PMC6891888 (Immunity, 2019).
